Reference: US20080200654A1 (KIRIN PHARMA, published 2008)

Assays:
[1] = target: T1, A33 antigen (full-length human A33) (human, UniProt Q99795 22-319); test: FCM on LS174T cells; grade = ng/ml to reach half MFI 125 (+++ 10<=x<100, ++ 100<=x<1000, + 1000<=x<10000)
T1 construct: Class I cell membrane protein of the Ig superfamily; also called GPA33; human A33 antigen
T1 sequence: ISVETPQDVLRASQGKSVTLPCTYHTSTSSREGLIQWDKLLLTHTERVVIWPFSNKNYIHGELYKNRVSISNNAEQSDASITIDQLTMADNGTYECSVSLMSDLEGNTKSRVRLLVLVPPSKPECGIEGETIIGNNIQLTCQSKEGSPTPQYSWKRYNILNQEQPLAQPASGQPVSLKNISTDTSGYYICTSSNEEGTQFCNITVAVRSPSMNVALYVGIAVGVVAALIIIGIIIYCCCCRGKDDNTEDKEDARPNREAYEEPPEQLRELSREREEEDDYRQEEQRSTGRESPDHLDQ
Text: (§1) The reactivity of each type of purified monoclonal antibody obtained in Example 8 to A33-antigen-expressing human colorectal cancer cell line COLO205 cells, LoVo cells (ATCC No. CCL-229), LS174T cells (ATCC No. CL-188), and NCI-H508 cells (ATCC No. CCL-253) was examined by FCM. Human colorectal cancer cell line HT-29 cells (ATCC No. HTB-38) expressing no A33 antigen were also examined as negative control cells. Each cell line was suspended at a concentration of 2×10⁶/ml in a PBS Staining Buffer (SB) containing 0.1% NaN₃ and 2% FCS. The cell suspension (50 μl/well) was dispensed in a 96-well round bottom plate (produced by Becton, Dickinson and Company). 50 μl of each type of purified monoclonal antibody (adjusted using SB at a concentration of 2000, 400, 80, or 16 ng/ml) was added, and then incubation was performed on ice for 30 minutes. A negative control was prepared depending on each subclass. Specifically, a human IgG1 antibody (produced by Sigma) was adjusted using SB at a concentration of 2000, 400, 80, or 16 ng/ml. 50 μl of the solution was added, followed by 30 minutes of incubation on ice. The resultant was washed twice with SB and then 50 μl of an FITC fluorescence-labeled goat anti-human IgG F(ab′)₂ antibody (produced by Southern Biotech), followed by 30 minutes of incubation on ice. The resultant was washed once with SB and then the resultant was suspended in 300 μl of a FACS buffer. The mean fluorescence intensity of each cell line was measured by FACS (FACScan produced by Becton, Dickinson and Company).
(§2) For COLO205 cells, the half value of the mean fluorescence intensity was determined to be 90. For LoVo cells, the half value of the mean fluorescence intensity was determined to be 25. […] When an antibody concentration required to reach such value was 10<=x<100 ng/ml, the reactivity was represented by +++, when the same was 100<=x<1000 ng/ml, the reactivity was represented by ++, and when the same was 1000<=x<10000 ng/ml, the reactivity was represented by +. When no binding was observed, the reactivity was represented by −.

[2] = target: T1, A33 antigen (full-length human A33); test: FCM on LoVo cells; grade = ng/ml to reach half MFI 25 (+++ 10<=x<100, ++ 100<=x<1000, + 1000<=x<10000)
Text: as §1, §2

[3] = target: T1, A33 antigen (full-length human A33); test: FCM competition on COLO205 cells; antibody 1 µg/ml, competitor mouse anti-A33 antibody 100 µg/ml
Method: Whether or not each type of purified monoclonal antibody obtained in Example 8 recognizes an epitope similar to that of the mouse anti-A33 antibody was examined by a competition test using FCM. The COLO205 cell line was suspended at a concentration of 2×10⁶/ml in a PBS Staining Buffer (SB) containing 0.1% NaN₃ and 2% FCS. The cell suspension (50 μl/well) was dispensed in a 96-well round bottom plate (produced by Becton, Dickinson and Company). The purified mouse anti-A33 antibody prepared in Example 1 was not added or added at a concentration of 100 μg/ml to the wells containing each type of purified monoclonal antibody (1 μg/ml and 50 μl), followed by 30 minutes of incubation on ice. A mouse negative control (containing no purified anti-A33 antibody added thereto) was prepared as follows. A human IgG1 antibody (produced by Sigma) was adjusted at a concentration of 1 μg/ml with SB and then 50 μl of the solution was added, followed by 30 minutes of incubation on ice. The resultant was washed twice with SB and then 50 μl of FITC fluorescence-labeled goat anti-human IgG F(ab′)₂ antibody (produced by IBL) was added, followed by 30 minutes of incubation on ice. The resultant was washed once with SB and then the resultant was suspended in 300 μl of a FACS buffer. The mean fluorescence intensity of each cell line was measured by FACS (FACScan produced by Becton, Dickinson and Company). The inhibition (%) between each type of purified monoclonal antibody and the mouse A33 antibody was calculated by the following formula: […]

[4] = target: T1, A33 antigen (full-length human A33); test: FCM on NCI-H508 cells; grade = ng/ml to reach half MFI 125 (+++ 10<=x<100, ++ 100<=x<1000, + 1000<=x<10000)
Text: as §1, §2

[5] = target: T1, A33 antigen (full-length human A33); test: FCM on COLO205 cells; grade = ng/ml to reach half MFI 90 (+++ 10<=x<100, ++ 100<=x<1000, + 1000<=x<10000)
Text: as §1, §2

B1: 125N26F6AA (antibody, human IgG1, kappa, V domains shown)
VH: QVQLVESGGGVVQPGRSLRLSCAASGFTFSHYGMHWVRQAPGKGLEWVALIWYDGSNKYYADSVKGRFTISRDNSKNTLYLQMNSLRAEDTAVYYCARDPLAAGTSYFDYWGQGTLVTVSS
VL: EIVLTQSPDFQSVTPKEKVTITCRASQSIGSSLHWYQQKPDQSPKLLIKYASQSFSGVPSRFSGSGSGTDFTLTINSLEAEDAAAYYCHQSSSLPFTFGPGTKVDIKR
notes: Human IgG1 kappa antibody purified from hybridoma 125N26F6AA (FERM BP-10109); also called 125N26F6AA antibody
With B1 the “antibody concentration required to reach half value of mean fluorescence intensity” value (“antibody concentration required” for short) [1] was 100 to 1000 ng/mL, the “antibody concentration required” value [2] was 10 to 100 ng/mL and the “Inhibition (%)” value [3] was 98%. For the same binder, the “antibody concentration required” value [4] was 100 to 1000 ng/mL and the “antibody concentration required” value [5] was 10 to 100 ng/mL.

B2: 125M10AA (antibody, human IgG1, kappa, V domains shown)
VH: QLQVQESGPGLVKPSETLSLICTVSGGSIRTSGYYWGWFRQPPGKGLEWIGTSHNSGSTYYNPSLKSRVTISVDTSKNQFSLKLNSVTAADTAVYYCARQGYDFKVNIDVWGQGTTVTVSS
VL: EIVLTQSPATLSLSPGERATLSCRASQSVSSYLAWYQQKPGQAPRLLIYDASNRATGIPARFSGSGSGTDFTLTISSLEPEDFAVYYCQQRSNWPLTFGGGTKVEIKR
notes: Human IgG1 kappa antibody purified from hybridoma 125M10AA (FERM BP-10107); also called 125M10AA antibody
B2 was tested, and the “antibody concentration required” value [1] was 10 to 100 ng/mL, the “antibody concentration required” value [2] was 10 to 100 ng/mL and the “Inhibition (%)” value [3] was 5%. The “antibody concentration required” value [4] was 10 to 100 ng/mL and the “antibody concentration required” value [5] was 10 to 100 ng/mL.

B3: 125M165DAAA (antibody, V domains shown)
VH: QVQLVESGGGVVQPGRSLRLSCAASGFTFSYYGMHWVRQAPGKGLEWVAVIWYDGSNKYYADSVKGRFTISRDNSKKTLYLQMNSLRAEDTAVYYCARDGHSSGWGDFQHWGQGTLVTVSS
VL: EIVLTQSPATLSLSPGERATLSCRASQSVSSSLAWYQQKPGQAPRLLIYDASNRATGIPARFSGSGSGTDFTLTISSLEPEDFAIYYCQQRSNWPPTFGQGTKVEIK
notes: Human IgG1 kappa antibody purified from the hybridoma (FERM BP-10106); also called 125M165DAAA antibody
For B3, the “antibody concentration required” value [1] was 100 to 1000 ng/mL, the “antibody concentration required” value [2] was 10 to 100 ng/mL and the “Inhibition (%)” value [3] was 96%. For the same binder, the “antibody concentration required” value [4] was 100 to 1000 ng/mL and the “antibody concentration required” value [5] was 10 to 100 ng/mL.

B4: 125M96ABA (antibody, V domains shown)
VH: QLQLQESGPGLVKPSETLSLTCTVSGGSISTSSYYWGWIRQPPGKGLEWIGTIYYNGSTYYSPSLKSRVSISVDTSKNQFSLKLSSVTAADTSVYYCARQGYDIKINIDVWGQGTTVTVSS
VL: EIVLTQSPATLSLSPGERATLSCRASQSVSSYLAWYQQKPGQAPRLLIYVASNRATGIPARFSGSGSGTDFTLTISSLEPEDFAVYYCQQRSNWPLTFGGGTKVEIK
notes: Human IgG1 kappa antibody purified from the hybridoma (FERM BP-10108); also called 125M96ABA antibody
In the case of B4, the “antibody concentration required” value [1] is reported as 100 to 1000 ng/mL, the “antibody concentration required” value [2] is reported as 10 to 100 ng/mL and the “Inhibition (%)” value [3] is reported as 22.8%. For the same binder, the “antibody concentration required” value [4] was 100 to 1000 ng/mL and the “antibody concentration required” value [5] was 10 to 100 ng/mL.

B5: 125Q54AAAA (antibody, V domains shown)
VH: EVQLLESGGGLVQPGGSLRLSCAASGFTFSSYAMSWVRQAPGKGLEWVSDISGSGGYTYYADSVKGRFTISRDNSKNTLYLQMNSLRAEDTAVYYCAKTGDGSGSYSPDSWGQGTLVTVSS
VL: DIQMTQSPSSLSASVGDRVTITCRASQGISRWLAWYQQKPEKAPKSLIYAASSLQSGVPSRFSGSGSGTDFTLTISSLQPEDFATYYCQQYNSYPYTFGQGTKLEIK
notes: Human IgG1 kappa antibody purified from the hybridoma (FERM BP-10105); also called 125Q54AAAA antibody
B5 was tested, and the “antibody concentration required” value [1] was 100 to 1000 ng/mL, the “antibody concentration required” value [2] was 10 to 100 ng/mL and the “Inhibition (%)” value [3] was 46.5%. For the same binder, the “antibody concentration required” value [4] was 100 to 1000 ng/mL and the “antibody concentration required” value [5] was 10 to 100 ng/mL.

B6: 125R5AAAA (antibody, V domains shown)
VH: EVQLLESGGGLVQPGGSLRLSCAASGFTFSSYAMSWVRQAPGKGLEWVSDISGSGGYTYYADSVKGRFTISRDNSKKTLYLQMNSLRAEDTAVYYCAKTGDGSGSYSPDYWGQGTLVTVSS
VL: DIQMTQSPSSLSASVGDRVTITCRASQGISSWLAWYQQKPEKAPKSLIYAASSLQSGVPSRFSGSGSGTDFTLTISSLQPEDFATYYCQQYNSYPYTFGQGTKLEIK
notes: Human IgG1 kappa antibody purified from the hybridoma (FERM BP-10103); also called 125R5AAAA antibody
In the case of B6, the “antibody concentration required” value [1] is reported as 100 to 1000 ng/mL, the “antibody concentration required” value [2] is reported as 10 to 100 ng/mL and the “Inhibition (%)” value [3] is reported as 63.9%. For the same binder, the “antibody concentration required” value [4] was 100 to 1000 ng/mL and the “antibody concentration required” value [5] was 10 to 100 ng/mL.

B7: 125Q47BA (antibody, V domains shown)
VH: EVQLLESGGGLVQPGGSLRLSCAASGFTFSSYAMTWVRQAPGKGLEWVSDISGSGGYTYYADSVKGRFTISRDNSKNTLYLQMNSLRAEDTAVYYCAKTGAGSGSYSPDSWGQGTLVTVSS
VL: DIQMTQSPSSLSASVGDRVTITCRASQGISSWLAWYQQKPEKAPKSLIYAASSLQSGVPSRFSGSGSGTDFTLTISSLQPEDFATYYCQQYNSYPYTFGQGTKLEIK
notes: Human IgG1 kappa antibody purified from the hybridoma (FERM BP-10104); also called 125Q47BA antibody
B7 was tested, and the “antibody concentration required” value [1] was 100 to 1000 ng/mL, the “antibody concentration required” value [2] was 10 to 100 ng/mL and the “Inhibition (%)” value [3] was 64.1%. For the same binder, the “antibody concentration required” value [4] was 100 to 1000 ng/mL and the “antibody concentration required” value [5] was 10 to 100 ng/mL.

B8: 263A17 (antibody, V domains shown)
VH: EVQLLESGGGLVQPGGSLRLSCAASGFTFSSYAMSWIRQAPGKGLEWVSAISASGGSTYYADSVKGRFTISRDNSKNTLYLQMNSLRAEDTAVYYCAKDRIVGATNYYYGMDVWGQGTTVTVSS
VL: DIQMTQSPPSVSASVGDRVTITCRASQGISSWLAWYQHKPGKAPKLLIYGASSLQSGVPSRFSGSGSGTDFTLTISSLQPEDFATYYCQQANSFPITFGQGTRLEIK
notes: Human IgG1 kappa antibody purified from the hybridoma; also called 263A17 antibody
With B8 the “antibody concentration required” value [1] was 100 to 1000 ng/mL, the “antibody concentration required” value [2] was 100 to 1000 ng/mL and the “Inhibition (%)” value [3] was 3.7%. The “antibody concentration required” value [4] was 100 to 1000 ng/mL and the “antibody concentration required” value [5] was 100 to 1000 ng/mL.
